The first assay deals with HLA-A*24 (human). Nature of the assay: UV peptide exchange ELISA. Background: An ELISA detects its analyte on a solid surface through an enzyme-linked reagent.
Molecule MYINEVERL came in with a peptide exchange yield of over 75%.

Regarding IYQQIIQTY, the peptide exchange yield was over 75%.

KQMEDGHTLF registered a peptide exchange yield of 20 to 50%.

Regarding QYQNVLTLW, the peptide exchange yield was over 75%.

For MQPRMFFLF, the peptide exchange yield is over 75%.

Regarding KYLEESVWL, the peptide exchange yield was over 75%.

The molecule VMPSDSFFF registered a peptide exchange yield of over 75%.

NYIVPDKQIF yielded a peptide exchange yield of 50 to 75%.

With LYISEVRNI, the peptide exchange yield is over 75%.

Take VFIDHPVHLKF: the peptide exchange yield is over 75%.

Molecule VFQEKHHVI displayed a peptide exchange yield of 50 to 75%.

The molecule KYMKIFHKF displayed a peptide exchange yield of over 75%.

On to VYPLLSRLYW, for which the peptide exchange yield was over 75%.

The molecule VYPASKMFPFI gave a peptide exchange yield of over 75%.

Molecule KSSVIASLLF returned a peptide exchange yield of 50 to 75%.

In turn, VYVGAVNRI yielded a peptide exchange yield of over 75%.

As to KYALLLQEL, the peptide exchange yield was over 75%.

On to RFLPSPVVI, for which the peptide exchange yield is over 75%.

Turning to KYTNWKAFL, the peptide exchange yield was over 75%.

On to WYGWHFPEL, for which the peptide exchange yield was in the range of 50 to 75%.

For the molecule VYSDLHAFYY, the peptide exchange yield was over 75%.

With QYLPGWTVLF, the peptide exchange yield was over 75%.

Take QFAAPLRGIYF: the peptide exchange yield is over 75%.

LYPEGLRLL yielded a peptide exchange yield of over 75%.

Turning to YYSPLRDLL, the peptide exchange yield is over 75%.

Take RYPGKFYRV: the peptide exchange yield is over 75%.

Regarding PYTNYTFDF, the peptide exchange yield is over 75%.

KYITNLEDL had a peptide exchange yield of over 75%.

In turn, NYAIFDEGHML had a peptide exchange yield of over 75%.

Take LLIKLLQTF: the peptide exchange yield fell in the range of 50 to 75%.

TYSKKHFRI gave a peptide exchange yield of over 75%.

In turn, RWMDQRLVF came in with a peptide exchange yield of over 75%.

Take TLPNTIYRF: the peptide exchange yield was over 75%.

SYMVLAPVF had a peptide exchange yield of over 75%.

As for AYLSAVGTF, the peptide exchange yield was over 75%.

With KYSTTFFMV, the peptide exchange yield lay within 20 to 50%.

VYNDHSIYVW had a peptide exchange yield of over 75%.

For VYMIEPLEL, the peptide exchange yield was over 75%.

For the molecule LYQEILAQL, the peptide exchange yield is over 75%.

In the case of KYVKVFDKF, the peptide exchange yield is over 75%.

Turning to KFLGPAEHLTF, the peptide exchange yield is over 75%.

As to SLPDLTPTF, the peptide exchange yield was over 75%.

Regarding SYIGLPLTL, the peptide exchange yield was in the range of 50 to 75%.

Take RYKQDVERF: the peptide exchange yield is 50 to 75%.

In turn, VYDQYFITL had a peptide exchange yield of over 75%.

Turning to KYADYFLEV, the peptide exchange yield is over 75%.

In turn, RYEGILYTI displayed a peptide exchange yield of over 75%.

Regarding TWFPKTPMLF, the peptide exchange yield was over 75%.

As to RWLPQKNAAQF, the peptide exchange yield was in the range of 50 to 75%.

QYEPPSAPSTTF returned a peptide exchange yield of 50 to 75%.

In turn, LIFMLANVF showed a peptide exchange yield of 10 to 20%.

As for IQMDEPMAF, the peptide exchange yield is 10 to 20%.

In turn, TYLSIFDQL showed a peptide exchange yield of 50 to 75%.

The molecule IYFRDSSFL came in with a peptide exchange yield of over 75%.

For SYPELVKMVW, the peptide exchange yield was over 75%.

As to NYAENILTL, the peptide exchange yield was in the range of 50 to 75%.

In turn, QWPWQASLQF came in with a peptide exchange yield of over 75%.

AYTLLGHEFV had a peptide exchange yield of 10 to 20%.

Molecule NYIYSISVF showed a peptide exchange yield of over 75%.

Regarding IYHSHHPTL, the peptide exchange yield was 50 to 75%.

In the case of RYLADLPTL, the peptide exchange yield is over 75%.

In the case of KYFVPPQLF, the peptide exchange yield is over 75%.

Turning to YPSIIQEF, the peptide exchange yield is over 75%.

Molecule AFPVTSIFHTF returned a peptide exchange yield of over 75%.

TYCQNIKEF returned a peptide exchange yield of over 75%.

As for IMPEKFEFW, the peptide exchange yield is over 75%.

For KYVKDFHKF, the peptide exchange yield is over 75%.

The target in the next assay is HLA-B*44 (human). Nature of the assay: UV peptide exchange ELISA.
Molecule AEMLERVIKNY displayed a peptide exchange yield of over 75%.

The values are drawn from patent US20220153796A1.
